# Tests used:
# [1] = biological target: wild-type (WT) SARS-CoV-2 S-protein trimer (SARS-CoV-2) (UniProt P0DTC2)
# [2] = biological target: prefusion stabilized SARS-CoV-2 S-protein trimer (SARS-CoV-2) (UniProt P0DTC2); test: ELISA
# [3] = biological target: wild-type (WT) SARS-CoV-2 S-protein trimer (SARS-CoV-2) (UniProt P0DTC2); test: ELISA
# Fc-Li-PD (human) = Fc-Li-PD (human) (UniProt Q9BYF1); test: BLI
# PD-CLD-Fc (human) = PD-CLD-Fc (human) (UniProt Q9BYF1); test: BLI
# PD-Fc (human) = PD-Fc (human) (UniProt Q9BYF1); test: BLI
# PD-Li-Fc (human) = PD-Li-Fc (human) (UniProt Q9BYF1); test: BLI
substance,measurement,setting,value
PD-Fc (from UniProt Q9BYF1 18-615) (Fc fusion),IC50 of neutralisation: infection of ACE2-transduced HEK293T cells by SARS-CoV-2 pseudotyped VSV particles (luciferase); S protein on the pseudovirus with cell-surface ACE2,[1],12 nM
PD-CLD-Fc (from UniProt Q9BYF1 18-740) (Fc fusion),IC50,[2],10 nM
same,IC50,[3],0.1 nM
PD-Li-Fc (from UniProt Q9BYF1 18-615) (Fc fusion),IC50 of neutralisation: infection of ACE2-transduced HEK293T cells by SARS-CoV-2 pseudotyped VSV particles (luciferase); S protein on the pseudovirus with cell-surface ACE2,[1],12 nM
S1 monomer (BLI of Fig. 3B) (domain or fragment),Kd,Fc-Li-PD (human),45 nM
same,Kd,PD-CLD-Fc (human),11 nM
same,ratio of the KD for S1 monomer to the KD for S-protein trimer,PD-Fc (human),3 fold
same,ratio of the KD for S1 monomer to the KD for S-protein trimer,PD-Li-Fc (human),3 fold

# Reference: PMC9728973
